The target in assay [1] is T1, PfHsp70-1 (Plasmodium falciparum, UniProt Q8IB24). Description: SPR heterologous association with PfHsp70-1. Type of assay: binding.
The next assay concerns the target T2, PfHsp70-z (Plasmodium falciparum, UniProt Q8IC01).
T2 sequence (Q8IC01 1-873): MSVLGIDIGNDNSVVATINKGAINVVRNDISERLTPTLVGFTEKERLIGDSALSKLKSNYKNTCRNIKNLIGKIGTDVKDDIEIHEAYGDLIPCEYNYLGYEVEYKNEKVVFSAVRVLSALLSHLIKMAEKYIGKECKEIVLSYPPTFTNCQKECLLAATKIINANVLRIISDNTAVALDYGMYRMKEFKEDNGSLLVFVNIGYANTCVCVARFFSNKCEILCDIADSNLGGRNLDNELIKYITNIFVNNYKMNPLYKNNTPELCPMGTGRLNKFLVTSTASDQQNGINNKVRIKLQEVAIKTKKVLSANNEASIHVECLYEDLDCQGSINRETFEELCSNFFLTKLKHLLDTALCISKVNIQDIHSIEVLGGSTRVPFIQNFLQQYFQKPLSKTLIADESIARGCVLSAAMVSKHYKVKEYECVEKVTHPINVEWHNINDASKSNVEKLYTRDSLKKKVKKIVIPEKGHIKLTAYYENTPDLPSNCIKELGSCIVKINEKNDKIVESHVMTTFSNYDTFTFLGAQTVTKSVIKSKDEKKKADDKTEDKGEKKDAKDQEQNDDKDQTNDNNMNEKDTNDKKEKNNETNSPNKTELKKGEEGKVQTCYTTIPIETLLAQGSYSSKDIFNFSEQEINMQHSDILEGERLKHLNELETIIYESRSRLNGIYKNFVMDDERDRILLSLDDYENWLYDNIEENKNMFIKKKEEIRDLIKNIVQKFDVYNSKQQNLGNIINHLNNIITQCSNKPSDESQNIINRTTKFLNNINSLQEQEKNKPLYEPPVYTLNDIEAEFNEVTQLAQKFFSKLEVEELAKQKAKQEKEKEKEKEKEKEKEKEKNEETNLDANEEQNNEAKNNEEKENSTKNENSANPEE
Description: SPR self-association, immobilised ligand PfHsp70-z. In kind it is binding.

In assay [2] the target is T1, PfHsp70-1. The following applies: previous study; ref [3]; cited from earlier work.

Entries after “also recorded” stand apart in the source; their conditions may differ.

T1 sequence (Q8IB24 1-677): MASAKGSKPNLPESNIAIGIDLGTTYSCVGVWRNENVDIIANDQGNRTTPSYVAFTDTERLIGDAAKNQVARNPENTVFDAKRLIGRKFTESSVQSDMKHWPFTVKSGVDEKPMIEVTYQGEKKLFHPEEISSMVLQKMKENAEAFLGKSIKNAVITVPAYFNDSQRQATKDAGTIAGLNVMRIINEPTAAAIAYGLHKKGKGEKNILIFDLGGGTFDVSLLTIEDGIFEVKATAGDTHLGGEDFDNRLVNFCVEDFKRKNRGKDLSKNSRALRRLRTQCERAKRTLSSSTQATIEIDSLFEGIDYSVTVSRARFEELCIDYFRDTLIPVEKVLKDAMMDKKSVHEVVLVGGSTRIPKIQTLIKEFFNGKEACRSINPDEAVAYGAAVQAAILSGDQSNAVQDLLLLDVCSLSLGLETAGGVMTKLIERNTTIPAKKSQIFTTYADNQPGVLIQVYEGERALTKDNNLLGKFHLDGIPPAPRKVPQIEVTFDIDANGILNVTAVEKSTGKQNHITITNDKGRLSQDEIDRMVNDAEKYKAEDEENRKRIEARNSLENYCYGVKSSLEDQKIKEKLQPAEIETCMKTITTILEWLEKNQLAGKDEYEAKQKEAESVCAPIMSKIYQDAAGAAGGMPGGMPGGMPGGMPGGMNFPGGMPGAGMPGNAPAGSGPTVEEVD

B1: PfHsp70-z: essential cytosol localised Hsp110 chaperone of Plasmodium falciparum, recombinant (protein)
chain: MSVLGIDIGNDNSVVATINKGAINVVRNDISERLTPTLVGFTEKERLIGDSALSKLKSNYKNTCRNIKNLIGKIGTDVKDDIEIHEAYGDLIPCEYNYLGYEVEYKNEKVVFSAVRVLSALLSHLIKMAEKYIGKECKEIVLSYPPTFTNCQKECLLAATKIINANVLRIISDNTAVALDYGMYRMKEFKEDNGSLLVFVNIGYANTCVCVARFFSNKCEILCDIADSNLGGRNLDNELIKYITNIFVNNYKMNPLYKNNTPELCPMGTGRLNKFLVTSTASDQQNGINNKVRIKLQEVAIKTKKVLSANNEASIHVECLYEDLDCQGSINRETFEELCSNFFLTKLKHLLDTALCISKVNIQDIHSIEVLGGSTRVPFIQNFLQQYFQKPLSKTLIADESIARGCVLSAAMVSKHYKVKEYECVEKVTHPINVEWHNINDASKSNVEKLYTRDSLKKKVKKIVIPEKGHIKLTAYYENTPDLPSNCIKELGSCIVKINEKNDKIVESHVMTTFSNYDTFTFLGAQTVTKSVIKSKDEKKKADDKTEDKGEKKDAKDQEQNDDKDQTNDNNMNEKDTNDKKEKNNETNSPNKTELKKGEEGKVQTCYTTIPIETLLAQGSYSSKDIFNFSEQEINMQHSDILEGERLKHLNELETIIYESRSRLNGIYKNFVMDDERDRILLSLDDYENWLYDNIEENKNMFIKKKEEIRDLIKNIVQKFDVYNSKQQNLGNIINHLNNIITQCSNKPSDESQNIINRTTKFLNNINSLQEQEKNKPLYEPPVYTLNDIEAEFNEVTQLAQKFFSKLEVEELAKQKAKQEKEKEKEKEKEKEKEKEKNEETNLDANEEQNNEAKNNEEKENSTKNENSANPEE
B1: in the assay with PfHsp70-1 [1] (apo- and ADP-states), the “affinity in apo- vs ADP-state” value is “occurred within the same order of affinity”. In the assay with PfHsp70-1 [1] (relative to apo-state), the “effect of nucleotide on heterologous association” value was “ATP enhanced the direct association of the two chaperones”. Besides, the “nucleotide regulation of self-association” value in the assay with PfHsp70-z (NN vs ADP/ATP) was “its self-association was nucleotide independent; also recorded: its oligomerisation was not regulated by nucleotide”. Also, in the assay with PfHsp70-z (apo state), the “KD self-association” value is on record as 1.39 nM. In the assay with PfHsp70-1 [2], the “effect of ATP on association” value was “ATP substantially enhances their association”.

The values above are taken from article PMC11066147 (Heliyon, 2024).
